Data reported in PMC9891255.

How the values were obtained:
UPF2S [1] = target: T1, UPF2S (Homo sapiens, UniProt Q9HAU5 761-1227); test: analytical SEC
UPF2S [2] = target: T1, UPF2S; test: fluorescence anisotropy
UPF2-U1BD = UPF2-U1BD (Homo sapiens, UniProt Q9HAU5 1105-1227); test: fluorescence anisotropy
Sequence of UPF2-U1BD (Q9HAU5 1105-1227): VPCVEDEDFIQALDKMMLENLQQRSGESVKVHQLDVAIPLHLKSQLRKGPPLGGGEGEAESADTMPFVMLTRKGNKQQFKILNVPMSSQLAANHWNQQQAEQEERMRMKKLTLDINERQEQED

T1 sequence (Q9HAU5 761-1227): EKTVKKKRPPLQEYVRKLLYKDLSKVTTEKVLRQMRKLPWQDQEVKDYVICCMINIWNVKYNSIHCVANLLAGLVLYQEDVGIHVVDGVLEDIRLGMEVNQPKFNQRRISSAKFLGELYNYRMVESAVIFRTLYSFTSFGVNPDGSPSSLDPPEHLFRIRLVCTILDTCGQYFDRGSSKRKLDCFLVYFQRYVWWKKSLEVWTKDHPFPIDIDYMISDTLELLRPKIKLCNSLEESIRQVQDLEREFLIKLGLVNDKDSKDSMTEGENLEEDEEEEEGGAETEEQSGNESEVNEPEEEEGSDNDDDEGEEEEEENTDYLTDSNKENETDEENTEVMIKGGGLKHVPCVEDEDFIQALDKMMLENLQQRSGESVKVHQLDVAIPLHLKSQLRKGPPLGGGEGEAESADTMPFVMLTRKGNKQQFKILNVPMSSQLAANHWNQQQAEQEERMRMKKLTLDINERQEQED

UUUUUUUUUUUUUUU (ssRNA) [U15 RNA]
binding result (UPF2S [1]): no binding

UUUUUUUUUUUU (ssRNA) [U12 RNA]
Kd (UPF2S [2]): ~600 nM | binding result (UPF2-U1BD): no binding
